This note sets out measurements from patent US20220403043A1 (YEDA RESEARCH AND DEVELOPMENT, published 2022).

Assay [1] has as its target T1, biotinylated human CD40 (Acrobiosystems) (human, UniProt P25942 21-193, biotinylated (site not stated)).
T1 construct: also called huCD40
Briefly: simultaneous binding ELISA (FIG. 4A-D). Here is the method: (§1) All sequential steps were performed at room temperature. After being washed, the plates were blocked for 1 hr with 1×PBS with 2% Bovine serum Albumin and were subsequently incubated for 1 hr with serially diluted IgGs (1:5 consecutive dilutions in 1×PBS with 2% Bovine serum Albumin). For dual binding ELISA assay, plates were incubated for 1 hr with biotinylated human CD40 (Acrobiosystems). After washing, plates were incubated for 1 hr with horseradish peroxidase-conjugated anti-human IgG (Jackson ImmunoResearch) or with horseradish peroxidase-conjugated Streptavidin (Biolegend). Detection was performed using a one component substrate solution (TMB) and reactions stopped with the addition of 0.18 M sulphuric acid. Absorbance at 450 nm was immediately recorded using a SpectraMax Plus spectrophotometer (Molecular Devices), and background absorbance from negative control samples was subtracted.
For orientation: ELISA stands for enzyme-linked immunosorbent assay.

Assay [2] has as its target T2, recombinant human DEC-205 (Sino Biological), extracellular domain (human, UniProt O60449 28-1666).
T2 construct: extracellular domain; Bought protein
Briefly: simultaneous binding ELISA (FIG. 4A-D). Here is the method:
as §1

Assay [3] has as its target T3, recombinant human CD40 (Sino Biological), extracellular domain (human, UniProt P25942 21-193).
T3 construct: also called huCD40; hCD40
Description: ELISA titration on coated recombinant huCD40 (FIG. 4A). On the procedure: as §1

Assay [4] deals with T4, recombinant hFcγRIIB (human, UniProt P31994 43-217, limits assumed).
T4 construct: construct not described; also called human FcγRIIB
T4 sequence (looked up): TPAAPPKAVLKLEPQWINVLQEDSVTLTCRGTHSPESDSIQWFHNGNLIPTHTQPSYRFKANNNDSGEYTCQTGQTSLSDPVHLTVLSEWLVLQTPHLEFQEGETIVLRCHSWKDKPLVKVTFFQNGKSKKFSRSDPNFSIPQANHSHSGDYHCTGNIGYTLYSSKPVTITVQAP
Description: ELISA on recombinant hFcγRIIB (FIG. 9B).

Assay [5] addresses T2, recombinant human DEC-205 (Sino …). Briefly: ELISA titration on coated recombinant human DEC-205 (FIG. 4B). On the procedure: as §1
Assay [6] has as its target T5, recombinant mouse CD11c (R&D Systems) (mouse, UniProt Q9QXH4 20-1116).
T5 construct: extracellular domain; Bought protein; also called recombinant CD11c
T5 sequence (looked up): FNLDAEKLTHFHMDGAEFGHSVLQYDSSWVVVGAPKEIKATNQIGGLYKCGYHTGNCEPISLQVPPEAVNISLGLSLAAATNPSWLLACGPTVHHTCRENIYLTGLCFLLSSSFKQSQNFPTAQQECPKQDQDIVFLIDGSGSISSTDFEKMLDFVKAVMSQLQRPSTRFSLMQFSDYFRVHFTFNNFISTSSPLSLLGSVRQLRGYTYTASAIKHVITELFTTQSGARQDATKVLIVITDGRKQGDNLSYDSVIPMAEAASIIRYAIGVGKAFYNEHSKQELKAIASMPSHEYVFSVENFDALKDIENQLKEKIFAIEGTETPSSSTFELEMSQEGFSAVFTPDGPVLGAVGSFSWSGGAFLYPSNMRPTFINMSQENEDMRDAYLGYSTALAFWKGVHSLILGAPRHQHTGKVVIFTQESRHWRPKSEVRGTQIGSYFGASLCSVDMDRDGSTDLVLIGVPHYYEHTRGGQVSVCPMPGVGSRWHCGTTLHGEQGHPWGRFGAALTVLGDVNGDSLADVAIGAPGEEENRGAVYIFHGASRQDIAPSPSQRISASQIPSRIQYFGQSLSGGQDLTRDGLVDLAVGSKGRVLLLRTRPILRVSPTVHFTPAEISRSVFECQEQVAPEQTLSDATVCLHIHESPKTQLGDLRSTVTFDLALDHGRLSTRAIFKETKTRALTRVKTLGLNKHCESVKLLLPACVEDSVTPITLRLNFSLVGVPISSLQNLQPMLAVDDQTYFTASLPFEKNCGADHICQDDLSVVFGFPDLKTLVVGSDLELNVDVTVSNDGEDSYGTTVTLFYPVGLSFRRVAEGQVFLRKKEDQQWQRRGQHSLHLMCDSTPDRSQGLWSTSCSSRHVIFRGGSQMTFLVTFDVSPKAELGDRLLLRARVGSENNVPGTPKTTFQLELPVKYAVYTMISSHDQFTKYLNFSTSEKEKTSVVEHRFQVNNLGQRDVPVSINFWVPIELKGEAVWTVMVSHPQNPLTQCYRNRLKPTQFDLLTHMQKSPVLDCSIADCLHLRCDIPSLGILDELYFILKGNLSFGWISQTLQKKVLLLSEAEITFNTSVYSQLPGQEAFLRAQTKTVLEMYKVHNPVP
Description: ELISA titration on coated recombinant mouse CD11c (FIG. 4B). Here is the method:
as §1

T2 sequence (O60449 28-1666): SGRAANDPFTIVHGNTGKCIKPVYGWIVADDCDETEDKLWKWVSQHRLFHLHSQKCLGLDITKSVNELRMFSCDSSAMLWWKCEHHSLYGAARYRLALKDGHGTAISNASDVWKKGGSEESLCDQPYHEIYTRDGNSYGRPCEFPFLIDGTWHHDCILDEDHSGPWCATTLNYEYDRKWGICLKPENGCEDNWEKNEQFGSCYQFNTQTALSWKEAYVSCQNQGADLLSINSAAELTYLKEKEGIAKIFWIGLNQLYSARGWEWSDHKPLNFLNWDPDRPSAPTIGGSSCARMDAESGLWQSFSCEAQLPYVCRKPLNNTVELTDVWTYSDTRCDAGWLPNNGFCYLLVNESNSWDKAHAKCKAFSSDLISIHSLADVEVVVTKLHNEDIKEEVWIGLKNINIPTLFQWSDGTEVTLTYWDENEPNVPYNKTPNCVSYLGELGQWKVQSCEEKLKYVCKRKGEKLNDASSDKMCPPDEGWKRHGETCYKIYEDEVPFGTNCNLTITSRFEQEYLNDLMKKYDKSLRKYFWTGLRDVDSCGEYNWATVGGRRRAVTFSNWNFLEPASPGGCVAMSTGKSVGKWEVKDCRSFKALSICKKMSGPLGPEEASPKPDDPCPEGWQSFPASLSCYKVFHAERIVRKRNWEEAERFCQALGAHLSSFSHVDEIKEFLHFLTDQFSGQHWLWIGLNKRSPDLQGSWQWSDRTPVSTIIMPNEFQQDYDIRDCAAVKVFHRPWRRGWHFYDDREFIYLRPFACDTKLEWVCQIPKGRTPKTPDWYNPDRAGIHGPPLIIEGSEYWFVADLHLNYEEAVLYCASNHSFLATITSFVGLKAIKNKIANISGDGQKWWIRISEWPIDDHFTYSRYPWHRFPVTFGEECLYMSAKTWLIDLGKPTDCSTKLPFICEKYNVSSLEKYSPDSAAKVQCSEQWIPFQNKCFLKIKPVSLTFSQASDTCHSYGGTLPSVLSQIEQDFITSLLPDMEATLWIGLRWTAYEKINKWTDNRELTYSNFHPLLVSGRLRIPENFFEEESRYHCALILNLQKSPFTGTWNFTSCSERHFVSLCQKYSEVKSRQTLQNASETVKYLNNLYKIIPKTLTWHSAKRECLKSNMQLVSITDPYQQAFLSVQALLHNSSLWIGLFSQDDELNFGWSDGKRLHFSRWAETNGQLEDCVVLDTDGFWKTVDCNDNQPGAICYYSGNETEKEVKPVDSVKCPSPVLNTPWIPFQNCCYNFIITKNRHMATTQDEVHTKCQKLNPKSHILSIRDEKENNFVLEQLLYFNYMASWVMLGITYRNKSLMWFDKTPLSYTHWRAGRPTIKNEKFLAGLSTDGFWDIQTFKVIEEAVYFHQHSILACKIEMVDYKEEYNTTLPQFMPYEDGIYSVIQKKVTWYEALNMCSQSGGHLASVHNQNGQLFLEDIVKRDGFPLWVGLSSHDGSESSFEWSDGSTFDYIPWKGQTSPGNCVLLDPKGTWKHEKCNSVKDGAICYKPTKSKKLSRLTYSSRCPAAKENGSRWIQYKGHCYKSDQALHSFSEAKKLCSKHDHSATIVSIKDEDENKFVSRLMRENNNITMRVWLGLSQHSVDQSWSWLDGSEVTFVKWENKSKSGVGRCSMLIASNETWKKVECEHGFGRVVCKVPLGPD
T1 sequence (P25942 21-193 limits assumed): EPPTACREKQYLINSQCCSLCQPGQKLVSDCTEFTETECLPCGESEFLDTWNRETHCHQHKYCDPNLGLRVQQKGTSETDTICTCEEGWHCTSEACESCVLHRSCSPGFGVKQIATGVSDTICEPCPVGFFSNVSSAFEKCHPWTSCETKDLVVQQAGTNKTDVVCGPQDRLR
T3 sequence (P25942 21-193 limits assumed): as above

B1: anti-CD40/DEC-205 bispecific Ab (2141/HD-109) (bispecific antibody)
VH 1: not shown
VL 1: DIQMTQSPSSVSASVGDRVTITCRASQGIYSWLAWYQQKPGKAPNLLIYTASTLQSGVPSRFSGSGSGTDFTLTISSLQPEDFATYYCQQANIFPLTFGGGTKVEIKRTVAAPSVFIFPPSDEQLKSGTASVVCLLNNFYPREAKVQWKVDNALQSGNSQESVTEQDSKDSTYSLSSTLTLSKADYEKHKVYACEVTHQGLSSPVTKSFNRGEC
VH 2: QVQLTESGPGLVAPSQSLSITCSVSGFSLTNYAINWVRQPPGKGLEWLGIIWTGGGTNYNSTLKSRLSISKDNSKSQVFLKMNSLQTDDTARYYCARVSHDYFYGSSPYYYGMDYWGQGTSVTVSS
VL 2: DIQMNQSPSSLSASLGDTITITCHASQNINVWLSWYQQKPGNIPKLLIYKVSNLHTGVPSRFSGSGSGTGFTLTISSLQPEDIATYYCQQGQSYPWTFGGGTKLEIK
notes: Whole human IgG1 bispecific of four chains; Knobs-into-holes: Y349C/T366S/L368A/Y407V on the anti-DC arm and S354C/T366W on the anti-CD40 arm; One arm is in CrossMab CH1-CL format
For the molecule B1, the binding result in assay [1], in assay [2] and in assay [3] was “binds” in each case.

B2: CD40/CD11c-V11 (bispecific antibody, human IgG1)
heavy 1: not shown
light 1: DIQMTQSPSSVSASVGDRVTITCRASQGIYSWLAWYQQKPGKAPNLLIYTASTLQSGVPSRFSGSGSGTDFTLTISSLQPEDFATYYCQQANIFPLTFGGGTKVEIKRTVAAPSVFIFPPSDEQLKSGTASVVCLLNNFYPREAKVQWKVDNALQSGNSQESVTEQDSKDSTYSLSSTLTLSKADYEKHKVYACEVTHQGLSSPVTKSFNRGEC
heavy 2: EVQLVEKGGGLVQPGKSLKLSCAASGFTFSEYWMNWVRQAPGKGLEWVGVIKYKYSNYATEYAESVKGRFTISRDDSKSSVYLQMNNLRAEDTAIYYCARTWENWYFDFWGQGTQVTVSSASVAAPSVFIFPPSDEQLKSGTASVVCLLNNFYPREAKVQWKVDNALQSGNSQESVTEQDSKDSTYSLSSTLTLSKADYEKHKVYACEVTHQGLSSPVTKSFNRGECDRSEPKSCDKTHTCPPCPAPELLGDDSVFLFPPKPKDTLMISRTPEVTCVVVDVSDEDGEVKFNWYVDGVEVHNAKTKPREEQYNSTYRVVSVLTVLHQDWLNGKEYKCKVSNKALPRPIEKTISKAKGQPREPQVCTLPPSREEMTKNQVSLSCAVKGFYPSDIAVEWESNGQPENNYKTTPPVLDSDGSFFLVSKLTVDKSRWQQGNVFSCSVMHEALHNHYTQKSLSLSPGKSAWSHPQFEK
light 2: DIQMTQSPSSLPASLGDRVTIHCQASQDISNYLTWYQQKPGKAPKLLIYETNKLADGVPSRFSGSGSGRDYSFTISSLESEDVGSYYCQHYYDYPRTFGPGTKLDLKSSASTKGPSVFPLAPSSKSTSGGTAALGCLVKDYFPEPVTVSWNSGALTSGVHTFPAVLQSSGLYSLSSVVTVPSSSLGTQTYICNVNHKPSNTKVDKKVEPKSC
notes: Human IgG1 Fc with V11 (G237D/P238D/H268D/P271G/A330R); also called anti-CD40/CD11c bsAb hIgG1-V11; IgG1-V11; copies: 1 + 1 + 1 + 1
In the case of B2, in assay [4], the binding result is on record as “binds”.

B3: CD40/DEC-205-V11 (bispecific antibody, human IgG1)
heavy 1: not shown
light 1: DIQMTQSPSSVSASVGDRVTITCRASQGIYSWLAWYQQKPGKAPNLLIYTASTLQSGVPSRFSGSGSGTDFTLTISSLQPEDFATYYCQQANIFPLTFGGGTKVEIKRTVAAPSVFIFPPSDEQLKSGTASVVCLLNNFYPREAKVQWKVDNALQSGNSQESVTEQDSKDSTYSLSSTLTLSKADYEKHKVYACEVTHQGLSSPVTKSFNRGEC
heavy 2: QVQLTESGPGLVAPSQSLSITCSVSGFSLTNYAINWVRQPPGKGLEWLGIIWTGGGTNYNSTLKSRLSISKDNSKSQVFLKMNSLQTDDTARYYCARVSHDYFYGSSPYYYGMDYWGQGTSVTVSSASVAAPSVFIFPPSDEQLKSGTASVVCLLNNFYPREAKVQWKVDNALQSGNSQESVTEQDSKDSTYSLSSTLTLSKADYEKHKVYACEVTHQGLSSPVTKSFNRGECDRSEPKSCDKTHTCPPCPAPELLGDDSVFLFPPKPKDTLMISRTPEVTCVVVDVSDEDGEVKFNWYVDGVEVHNAKTKPREEQYNSTYRVVSVLTVLHQDWLNGKEYKCKVSNKALPRPIEKTISKAKGQPREPQVCTLPPSREEMTKNQVSLSCAVKGFYPSDIAVEWESNGQPENNYKTTPPVLDSDGSFFLVSKLTVDKSRWQQGNVFSCSVMHEALHNHYTQKSLSLSPGKSAWSHPQFEK
light 2: DIQMNQSPSSLSASLGDTITITCHASQNINVWLSWYQQKPGNIPKLLIYKVSNLHTGVPSRFSGSGSGTGFTLTISSLQPEDIATYYCQQGQSYPWTFGGGTKLEIKSSASTKGPSVFPLAPSSKSTSGGTAALGCLVKDYFPEPVTVSWNSGALTSGVHTFPAVLQSSGLYSLSSVVTVPSSSLGTQTYICNVNHKPSNTKVDKKVEPKSC
notes: Human IgG1 Fc with V11 (G237D/P238D/H268D/P271G/A330R); also called IgG1-V11; copies: 1 + 1 + 1 + 1
Take B3: the binding result in assay [4] is “binds”.

B4: anti-DEC-205 (HD109) monospecific Ab (antibody, V domains shown)
VH: QVQLTESGPGLVAPSQSLSITCSVSGFSLTNYAINWVRQPPGKGLEWLGIIWTGGGTNYNSTLKSRLSISKDNSKSQVFLKMNSLQTDDTARYYCARVSHDYFYGSSPYYYGMDYWGQGTSVTVSS
VL: DIQMNQSPSSLSASLGDTITITCHASQNINVWLSWYQQKPGNIPKLLIYKVSNLHTGVPSRFSGSGSGTGFTLTISSLQPEDIATYYCQQGQSYPWTFGGGTKLEIK
Regarding B4, the binding result in assay [5] was “binds”.

B5: anti-CD40 (2141) monospecific Ab (antibody, V domains shown)
VH: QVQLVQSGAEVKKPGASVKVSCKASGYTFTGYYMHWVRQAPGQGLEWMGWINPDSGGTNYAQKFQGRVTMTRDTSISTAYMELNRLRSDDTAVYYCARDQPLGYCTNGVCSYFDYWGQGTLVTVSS
VL: DIQMTQSPSSVSASVGDRVTITCRASQGIYSWLAWYQQKPGKAPNLLIYTASTLQSGVPSRFSGSGSGTDFTLTISSLQPEDFATYYCQQANIFPLTFGGGTKVEIKR
notes: 2141 variable regions cloned on human IgG1 / human kappa backbones; also called clone 21.4.1; CD40 mAb
B5: the binding result in assay [6] and in assay [5] was “no binding” in each case.
